Where two headings read alike, the source gives them in different places. *1 amine or outer side, *2 acyl side, *3 side chain or, on linkers, in order; H or OH if unused. Where no end group is shown, it is not given here. Side-chain parts run from the residue outwards. The star is where a group is joined. C18 diacid = O=C(O)CCCCCCCCCCCCCCCCC(=O)*; C16 diacid = O=C(O)CCCCCCCCCCCCCCC(=O)*; γGlu = O=C(O)[C@H](CCC(=O)[*:2])N[*:1]; AEEA = NCCOCCOCC(=O)O
Legend:
human GIP receptor [1] = target: T1, human GIP receptor (human, UniProt P48546 22-466); experiment: cell-based or functional assay
T1 sequence (looked up): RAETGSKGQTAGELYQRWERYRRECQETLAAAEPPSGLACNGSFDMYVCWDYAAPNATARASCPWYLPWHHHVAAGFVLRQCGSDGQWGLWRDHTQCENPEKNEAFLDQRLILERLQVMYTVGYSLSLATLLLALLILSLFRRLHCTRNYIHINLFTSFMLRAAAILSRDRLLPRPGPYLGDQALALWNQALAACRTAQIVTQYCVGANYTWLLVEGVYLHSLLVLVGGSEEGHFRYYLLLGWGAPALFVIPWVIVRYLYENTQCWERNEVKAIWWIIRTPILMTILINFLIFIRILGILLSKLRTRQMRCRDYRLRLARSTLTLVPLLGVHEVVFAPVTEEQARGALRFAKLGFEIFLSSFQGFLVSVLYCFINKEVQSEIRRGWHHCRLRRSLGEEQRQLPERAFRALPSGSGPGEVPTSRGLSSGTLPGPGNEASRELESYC

human GIP receptor [2] = target: T1, human GIP receptor; experiment: cell-based or functional assay; remark: listed apart in the source

B1: AT363 (peptide)
peptide: EGTFISDYSIAMDKIK(C16 diacid)QQDFVNWLLAQKGKKNDWKHNITQ-OH
modifications: N-terminus assumed
SMILES: CC[C@H](C)[C@H](NC(=O)[C@H](CO)NC(=O)[C@H](Cc1ccc(O)cc1)NC(=O)[C@H](CC(=O)O)NC(=O)[C@H](CO)NC(=O)[C@@H](NC(=O)[C@H](Cc1ccccc1)NC(=O)[C@@H](NC(=O)CNC(=O)[C@@H](N)CCC(=O)O)[C@@H](C)O)[C@@H](C)CC)C(=O)N[C@@H](C)C(=O)N[C@@H](CCSC)C(=O)N[C@@H](CC(=O)O)C(=O)N[C@@H](CCCCN)C(=O)N[C@H](C(=O)N[C@@H](CCCCNC(=O)CCCCCCCCCCCCCCC(=O)O)C(=O)N[C@@H](CCC(N)=O)C(=O)N[C@@H](CCC(N)=O)C(=O)N[C@@H](CC(=O)O)C(=O)N[C@@H](Cc1ccccc1)C(=O)N[C@H](C(=O)N[C@@H](CC(N)=O)C(=O)N[C@@H](Cc1c[nH]c2ccccc12)C(=O)N[C@@H](CC(C)C)C(=O)N[C@@H](CC(C)C)C(=O)N[C@@H](C)C(=O)N[C@@H](CCC(N)=O)C(=O)N[C@@H](CCCCN)C(=O)NCC(=O)N[C@@H](CCCCN)C(=O)N[C@@H](CCCCN)C(=O)N[C@@H](CC(N)=O)C(=O)N[C@@H](CC(=O)O)C(=O)N[C@@H](Cc1c[nH]c2ccccc12)C(=O)N[C@@H](CCCCN)C(=O)N[C@@H](Cc1c[nH]cn1)C(=O)N[C@@H](CC(N)=O)C(=O)N[C@H](C(=O)N[C@H](C(=O)N[C@@H](CCC(N)=O)C(=O)O)[C@@H](C)O)[C@@H](C)CC)C(C)C)[C@@H](C)CC
cAMP agonism Emax (human GIP receptor [1]): 7 | cAMP antagonism (human GIP receptor [1]): 5 nM | cAMP antagonism % inhib (human GIP receptor [1]): 82% | cAMP antagonism log (human GIP receptor [1]): -8.3 log M | cAMP agonism % Emax (human GIP receptor [2]): 0% | cAMP antagonism (human GIP receptor [2]): 12.6 nM | cAMP antagonism % inhib (human GIP receptor [2]): 90% | cAMP antagonism pIC50 (human GIP receptor [2]): 7.9

B2: AT365 (peptide)
peptide: TFISDYKIAMDKIHQQDFVNWLLAQKGKK
HELM: PEPTIDE1{T.F.I.S.D.Y.K.I.A.M.D.K.I.H.Q.Q.D.F.V.N.W.L.L.A.Q.K.G.K.K}|PEPTIDE2{[O=C(O)CCCCCCCCCCCCCCC(=O)[*:2]].[gGlu]}$PEPTIDE1,PEPTIDE2,7:R3-2:R2$$$V2.0; N-terminus assumed
SMILES: CC[C@H](C)[C@H](NC(=O)[C@H](CCCCNC(=O)CC[C@H](NC(=O)CCCCCCCCCCCCCCC(=O)O)C(=O)O)NC(=O)[C@H](Cc1ccc(O)cc1)NC(=O)[C@H](CC(=O)O)NC(=O)[C@H](CO)NC(=O)[C@@H](NC(=O)[C@H](Cc1ccccc1)NC(=O)[C@@H](N)[C@@H](C)O)[C@@H](C)CC)C(=O)N[C@@H](C)C(=O)N[C@@H](CCSC)C(=O)N[C@@H](CC(=O)O)C(=O)N[C@@H](CCCCN)C(=O)N[C@H](C(=O)N[C@@H](Cc1c[nH]cn1)C(=O)N[C@@H](CCC(N)=O)C(=O)N[C@@H](CCC(N)=O)C(=O)N[C@@H](CC(=O)O)C(=O)N[C@@H](Cc1ccccc1)C(=O)N[C@H](C(=O)N[C@@H](CC(N)=O)C(=O)N[C@@H](Cc1c[nH]c2ccccc12)C(=O)N[C@@H](CC(C)C)C(=O)N[C@@H](CC(C)C)C(=O)N[C@@H](C)C(=O)N[C@@H](CCC(N)=O)C(=O)N[C@@H](CCCCN)C(=O)NCC(=O)N[C@@H](CCCCN)C(=O)N[C@@H](CCCCN)C(=O)O)C(C)C)[C@@H](C)CC
cAMP antagonism (human GIP receptor [1]): 6 nM | cAMP antagonism % inhib (human GIP receptor [1]): 100% | cAMP antagonism log (human GIP receptor [1]): -8.2 log M | cAMP agonism % Emax (human GIP receptor [2]): 0% | cAMP antagonism (human GIP receptor [2]): 13.6 nM | cAMP antagonism % inhib (human GIP receptor [2]): 100% | cAMP antagonism pIC50 (human GIP receptor [2]): 7.9

B3: AT364 (peptide)
peptide: EGTFISDYSIAMDKIK(C16 diacid)QQDFVNWLLAQKGPSSGAPPPS-OH
modifications: N-terminus assumed
SMILES: CC[C@H](C)[C@H](NC(=O)[C@H](CO)NC(=O)[C@H](Cc1ccc(O)cc1)NC(=O)[C@H](CC(=O)O)NC(=O)[C@H](CO)NC(=O)[C@@H](NC(=O)[C@H](Cc1ccccc1)NC(=O)[C@@H](NC(=O)CNC(=O)[C@@H](N)CCC(=O)O)[C@@H](C)O)[C@@H](C)CC)C(=O)N[C@@H](C)C(=O)N[C@@H](CCSC)C(=O)N[C@@H](CC(=O)O)C(=O)N[C@@H](CCCCN)C(=O)N[C@H](C(=O)N[C@@H](CCCCNC(=O)CCCCCCCCCCCCCCC(=O)O)C(=O)N[C@@H](CCC(N)=O)C(=O)N[C@@H](CCC(N)=O)C(=O)N[C@@H](CC(=O)O)C(=O)N[C@@H](Cc1ccccc1)C(=O)N[C@H](C(=O)N[C@@H](CC(N)=O)C(=O)N[C@@H](Cc1c[nH]c2ccccc12)C(=O)N[C@@H](CC(C)C)C(=O)N[C@@H](CC(C)C)C(=O)N[C@@H](C)C(=O)N[C@@H](CCC(N)=O)C(=O)N[C@@H](CCCCN)C(=O)NCC(=O)N1CCC[C@H]1C(=O)N[C@@H](CO)C(=O)N[C@@H](CO)C(=O)NCC(=O)N[C@@H](C)C(=O)N1CCC[C@H]1C(=O)N1CCC[C@H]1C(=O)N1CCC[C@H]1C(=O)N[C@@H](CO)C(=O)O)C(C)C)[C@@H](C)CC
cAMP antagonism (human GIP receptor [1]): 1 nM | cAMP antagonism % inhib (human GIP receptor [1]): 100% | cAMP antagonism log (human GIP receptor [1]): -8.9 log M | cAMP agonism % Emax (human GIP receptor [2]): 0% | cAMP antagonism (human GIP receptor [2]): 13.8 nM | cAMP antagonism % inhib (human GIP receptor [2]): 87% | cAMP antagonism pIC50 (human GIP receptor [2]): 7.9

B4: AT422 (peptide)
peptide: SGTFISDYSIAMDKIK([AEEA-AEEA-AEEA-γGlu-C18 diacid])QQDFVNWLLAQKGKKNDW-OH
modifications: N-terminus assumed
SMILES: CC[C@H](C)[C@H](NC(=O)[C@H](CO)NC(=O)[C@H](Cc1ccc(O)cc1)NC(=O)[C@H](CC(=O)O)NC(=O)[C@H](CO)NC(=O)[C@@H](NC(=O)[C@H](Cc1ccccc1)NC(=O)[C@@H](NC(=O)CNC(=O)[C@@H](N)CO)[C@@H](C)O)[C@@H](C)CC)C(=O)N[C@@H](C)C(=O)N[C@@H](CCSC)C(=O)N[C@@H](CC(=O)O)C(=O)N[C@@H](CCCCN)C(=O)N[C@H](C(=O)N[C@@H](CCCCNC(=O)COCCOCCNC(=O)COCCOCCNC(=O)COCCOCCNC(=O)CC[C@H](NC(=O)CCCCCCCCCCCCCCCCC(=O)O)C(=O)O)C(=O)N[C@@H](CCC(N)=O)C(=O)N[C@@H](CCC(N)=O)C(=O)N[C@@H](CC(=O)O)C(=O)N[C@@H](Cc1ccccc1)C(=O)N[C@H](C(=O)N[C@@H](CC(N)=O)C(=O)N[C@@H](Cc1c[nH]c2ccccc12)C(=O)N[C@@H](CC(C)C)C(=O)N[C@@H](CC(C)C)C(=O)N[C@@H](C)C(=O)N[C@@H](CCC(N)=O)C(=O)N[C@@H](CCCCN)C(=O)NCC(=O)N[C@@H](CCCCN)C(=O)N[C@@H](CCCCN)C(=O)N[C@@H](CC(N)=O)C(=O)N[C@@H](CC(=O)O)C(=O)N[C@@H](Cc1c[nH]c2ccccc12)C(=O)O)C(C)C)[C@@H](C)CC
cAMP agonism Emax (human GIP receptor [1]): 6 | cAMP antagonism (human GIP receptor [1]): 3 nM | cAMP antagonism % inhib (human GIP receptor [1]): 90% | cAMP antagonism log (human GIP receptor [1]): -8.5 log M | cAMP agonism % Emax (human GIP receptor [2]): 0% | cAMP antagonism (human GIP receptor [2]): 3.69 nM | cAMP antagonism % inhib (human GIP receptor [2]): 94% | cAMP antagonism pIC50 (human GIP receptor [2]): 8.4

B5: AT366 (peptide)
peptide: TFISDYKIAMDKIHQQDFVNWLLAQKGKKNDW
HELM: PEPTIDE1{T.F.I.S.D.Y.K.I.A.M.D.K.I.H.Q.Q.D.F.V.N.W.L.L.A.Q.K.G.K.K.N.D.W}|PEPTIDE2{[O=C(O)CCCCCCCCCCCCCCC(=O)[*:2]].[gGlu]}$PEPTIDE1,PEPTIDE2,7:R3-2:R2$$$V2.0; N-terminus assumed
SMILES: CC[C@H](C)[C@H](NC(=O)[C@H](CCCCNC(=O)CC[C@H](NC(=O)CCCCCCCCCCCCCCC(=O)O)C(=O)O)NC(=O)[C@H](Cc1ccc(O)cc1)NC(=O)[C@H](CC(=O)O)NC(=O)[C@H](CO)NC(=O)[C@@H](NC(=O)[C@H](Cc1ccccc1)NC(=O)[C@@H](N)[C@@H](C)O)[C@@H](C)CC)C(=O)N[C@@H](C)C(=O)N[C@@H](CCSC)C(=O)N[C@@H](CC(=O)O)C(=O)N[C@@H](CCCCN)C(=O)N[C@H](C(=O)N[C@@H](Cc1c[nH]cn1)C(=O)N[C@@H](CCC(N)=O)C(=O)N[C@@H](CCC(N)=O)C(=O)N[C@@H](CC(=O)O)C(=O)N[C@@H](Cc1ccccc1)C(=O)N[C@H](C(=O)N[C@@H](CC(N)=O)C(=O)N[C@@H](Cc1c[nH]c2ccccc12)C(=O)N[C@@H](CC(C)C)C(=O)N[C@@H](CC(C)C)C(=O)N[C@@H](C)C(=O)N[C@@H](CCC(N)=O)C(=O)N[C@@H](CCCCN)C(=O)NCC(=O)N[C@@H](CCCCN)C(=O)N[C@@H](CCCCN)C(=O)N[C@@H](CC(N)=O)C(=O)N[C@@H](CC(=O)O)C(=O)N[C@@H](Cc1c[nH]c2ccccc12)C(=O)O)C(C)C)[C@@H](C)CC
cAMP antagonism (human GIP receptor [1]): 3 nM | cAMP antagonism % inhib (human GIP receptor [1]): 100% | cAMP antagonism log (human GIP receptor [1]): -8.5 log M | cAMP agonism % Emax (human GIP receptor [2]): 0% | cAMP antagonism (human GIP receptor [2]): 17.8 nM | cAMP antagonism % inhib (human GIP receptor [2]): 100% | cAMP antagonism pIC50 (human GIP receptor [2]): 7.8
